Assay results published in patent US20240067729A1 (published 2024).

These binders were tested against T1, human PD-L1 (hPD-L1) coated on ELISA wells, Example 7 (human, UniProt Q9NZQ7 19-238) (assay: blocking ELISA (hPD1-Fc binding)).
T1 sequence (Q9NZQ7 19-238): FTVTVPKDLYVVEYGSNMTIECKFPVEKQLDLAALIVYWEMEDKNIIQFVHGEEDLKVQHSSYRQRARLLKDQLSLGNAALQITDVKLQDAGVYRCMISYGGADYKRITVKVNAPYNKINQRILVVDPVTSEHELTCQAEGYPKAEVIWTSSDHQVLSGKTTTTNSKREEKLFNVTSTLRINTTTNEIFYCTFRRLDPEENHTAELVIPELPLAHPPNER

IC50 [nM] | Binder
1.44 | h769-tm2 (humanized 769-hIgG1 variant) (antibody, V domains shown) VH: EVQLVQSGAEVKKPGATVKISCKVSGFNIKDTYMHWVQQAPGKGLEWMGLIDPANDNTIYAEKFQGRVTITADTSTDTAYMELSSLRSEDTAVYYCAREGYGGSYGEGYWGQGTLVTVSS VL: EIVMTQSPPTLSLSPGERVTLSCRASQSVSNDLSWYQQKPGQAPRLLIYYASIRFTGIPARFSGSGYGTDFTLTISSLQPEDFAVYYCQQDYNSPWTFGQGTKVEIK
1.47 | h769-IF3 (humanized 769-hIgG1 variant) (antibody, V domains shown) VH: EVQLVQSGAEVKKPGATVKISCKVSGFNIKDTYMHWVQQAPGKGLEWMGLIDPANDNTIYAEKFQGRVTITADTSTDTAYMELSSLRSEDTAVYYCAREGYGGSYGEGYWGQGTLVTVSS VL: EIVMTQSPPTLSLSPGERVTLSCRASQSVSNDLSWYQQKPGQAPRLLIYYASIRFTGIPARFSGSGSGTDFTLTISSLQPEDFAVYYCQQDYNSPWTFGQGTKVEIK
1.29 | h769-tm3 (humanized 769-hIgG1 variant) (antibody, V domains shown) VH: EVQLVQSGAEVKKPGATVKISCKVSGFNIKDTYMHWVQQAPGKGLEWMGLIDPANDNTIYAEKFQGRVTITADTSTDTAYMELSSLRSEDTAVYYCAREGYGGSYGEGYWGQGTLVTVSS VL: EIVMTQSPPTLSLSPGERVTLSCRASQSVSNDLSWYQQKPGQAPRLLIYYASIRFTGIPARFSGSGSGTDFTLTISSLQPEDFAVYFCQQDYNSPWTFGQGTKVEIK
1.57 | 769-hIgG1 (chimeric PAL769) (antibody, V domains shown) VH: EVQLQESGAELVKPGASVTLSCTASGFNIKDTYMHWVKQRPEQGLEWIGRIDPANDNTKYDPKFQDKATITADTSSDTAYLRLSSLTSEDTAVYYCAREGYGGSYGEGYWGQGTTLTVSS VL: SIVMTQTPKFLLVSAGDRVTITCKASQSVSNDVIWYQQKPGQSPKLLIYYASIRFTGVPDRFAGSGYGTDFTFTINTVQAEDLAVYFCQQDYNSPWTFGGGTKLEIK

These binders were tested against T1, human PD-L1 (hPD-L1) coated on ELISA … (assay: huPD1-Fc blocking ELISA).

IC50 [nM] | Binder
0.6 | PAL771.2 (antibody, V domains shown) VH: EVQLQESGAELVKPGASVKLSCTASGFNIKDTYMHWVKQRPEQGLEWIGRIDPANGNTKYDPKFPGKATITADTSSNTAYLQLSSLTSEDAAVYYCARPFNYRFYDVYYFDYWGQGTTLTVST VL: QIVLTQSPAIMSASPGEKVTMTCSASSSVSYMYWYQQKPGSSPRLLIYDTSNLASGVPLRFSGSGSGTSYSLTLSRMEAEDAATYYCQQWSTYPLTFGAGTKLELK

Each binder was assayed against T1, human PD-L1 (hPD-L1) coated on ELISA … (assay: Blocking ELISA).

IC50 [nM] | Binder
1.94 | 785-hIgG1 (chimeric PAL785) (antibody, V domains shown) VH: EVQLQESGPELVKPGTSVKMSCKASGYTFTSYVMHWVKQRPGQGLEWIGYINPYNDGSKYNEKFKGKATLTSDTSSSTAYMELSSLTSEDSAVYYCAKQTLDFWGQGTSVTVST VL: DIVLTQSPASLAVSLGQRATISCRASESVEFYGTTLMQWYQQKPGQPPKLLIYAASNVESGVPARFSGSGSGTDFSLNIHPVEEGDIGMYFCQQSRKVPYTFGGGTKLEIK
2.01 | 767-hIgG1 (chimeric PAL767) (antibody, V domains shown) VH: EVQLQESGPSLVKPSQTLSLTCSVTGDSITSGYWNWIRKFPGNKLEYMGYISYTGSTYYNPSLKRRISITRDTSKNQYYLQLNSVTTEDTATYYCASQGGWLQAMDYWGQGTSVTVSS VL: not shown
4.64 | 752-hIgG1 (chimeric PAL752) (antibody, V domains shown) VH: EVQLQESGAELARPGASVKLSCKASGHAFTSDSINWVKQRIGQGLEWIGEIYPRSGNPYYNEKFKGKATLTADKSSSTAYMELRSLTSEDSAVYFCATDYYGRYFDVWGTGTTVTVSS VL: DIQMTQSSFSFSVSLGDRVTIICKASEDIYNRLAWYQQKPGNTPRLLISGATSLETGVPSRFSGSGSGKDYTLSITSLQTEDVATYYCQQYWSTPWTFGGGTKLEIK
2.93 | 788-hIgG1 (chimeric PAL788) (antibody, V domains shown) VH: QVQLQQPGAELVKPGASVKLSCKASGYTFTSNWMNWVKQRPGRGLEWIGRIHPSDSETHYHQKFKSKATLTVDKSSSTAYIQLSSLTSEDSAVYYCAHSSGDYGRDYWGQGTTLTVSS VL: NIVLTQSPASLAVSLGQRATISCRASESVDSYGNSFMHWYQQKPGQPPKLLIYLASNLQSGVPARFSGSGSRTDFTLTIDPVEADDAATYYCQQNNEDPWTFGGGTKLEIK
1.58 | 769-hIgG1 (chimeric PAL769) (antibody, V domains shown) VH: EVQLQESGAELVKPGASVTLSCTASGFNIKDTYMHWVKQRPEQGLEWIGRIDPANDNTKYDPKFQDKATITADTSSDTAYLRLSSLTSEDTAVYYCAREGYGGSYGEGYWGQGTTLTVSS VL: SIVMTQTPKFLLVSAGDRVTITCKASQSVSNDVIWYQQKPGQSPKLLIYYASIRFTGVPDRFAGSGYGTDFTFTINTVQAEDLAVYFCQQDYNSPWTFGGGTKLEIK
